# Laboratory results taken from US20040228866A1, “Suppressor genes” (Ludwig Institute for Cancer Research, priority 2000, published 2004).
# Target: p73α (UniProt O15350)
# Assay: cell-based or functional assay
# Sequence of p73α (O15350 whole entry): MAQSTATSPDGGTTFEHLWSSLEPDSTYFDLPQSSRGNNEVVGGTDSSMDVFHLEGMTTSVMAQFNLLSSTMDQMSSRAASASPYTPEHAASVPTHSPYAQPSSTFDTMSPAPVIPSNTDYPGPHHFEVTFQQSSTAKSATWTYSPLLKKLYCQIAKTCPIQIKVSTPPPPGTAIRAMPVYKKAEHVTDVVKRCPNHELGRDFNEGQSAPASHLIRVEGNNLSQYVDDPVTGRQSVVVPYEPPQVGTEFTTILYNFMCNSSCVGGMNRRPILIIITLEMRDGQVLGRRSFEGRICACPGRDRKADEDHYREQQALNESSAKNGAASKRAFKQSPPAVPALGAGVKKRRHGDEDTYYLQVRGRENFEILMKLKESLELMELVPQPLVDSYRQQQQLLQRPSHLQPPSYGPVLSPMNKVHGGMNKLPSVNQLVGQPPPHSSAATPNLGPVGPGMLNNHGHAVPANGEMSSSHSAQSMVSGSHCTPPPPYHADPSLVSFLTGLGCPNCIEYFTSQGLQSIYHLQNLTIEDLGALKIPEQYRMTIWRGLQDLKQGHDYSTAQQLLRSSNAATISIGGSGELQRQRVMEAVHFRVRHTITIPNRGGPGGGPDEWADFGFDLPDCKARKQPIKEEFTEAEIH
row,transactivation function on the Bax promoter (Bax-luc reporter) [fold],Binder
1,6,ASPP2 (1-1128) (protein) MMPMFLTVYLSNNEQHFTEVPVTPETICRDVVDLCKEPGESDCHLAEVWCGSERPVADNERMFDVLQRFGSQRNEVRFFLRHERPPGRDIVSGPRSQDPSLKRNGVKVPGEYRRKENGVNSPRMDLTLAELQEMASRQQQQIEAQQQLLATKEQRLKFLKQQDQRQQQQVAEQEKLKRLKEIAENQEAKLKKVRALKGHVEQKRLSNGKLVEEIEQMNNLFQQKQRELVLAVSKVEELTRQLEMLKNGRIDSHHDNQSAVAELDRLYKELQLRNKLNQEQNAKLQQQRECLNKRNSEVAVMDKRVNELRDRLWKKKAALQQKENLPVSSDGNLPQQAASAPSRVAAVGPYIQSSTMPRMPSRPELLVKPALPDGSLVIQASEGPMKIQTLPNMRSGAASQTKGSKIHPVGPDWSPSNADLFPSQGSASVPQSTGNALDQVDDGEVPLREKEKKVRPFSMFDAVDQSNAPPSFGTLRKNQSSEDILRDAQVANKNVAKVPPPVPTKPKQINLPYFGQTNQPPSDIKPDGSSQQLSTVVPSMGTKPKPAGQQPRVLLSPSIPSVGQDQTLSPGSKQESPPAAAVRPFTPQPSKDTLLPPFRKPQTVAASSIYSMYTQQQAPGKNFQQAVQSALTKTHTRGPHFSSVYGKPVIAAAQNQQQHPENIYSNSQGKPGSPEPETEPVSSVQENHENERIPRPLSPTKLLPFLSNPYRNQSDADLEALRKKLSNAPRPLKKRSSITEPEGPNGPNIQKLLYQRTTIAAMETISVPSYPSKSASVTASSESPVEIQNPYLHVEPEKEVVSLVPESLSPEDVGNASTENSDMPAPSPGLDYEPEGVPDNSPNLQNNPEEPNPEAPHVLDVYLEEYPPYPPPPYPSGEPEGPGEDSVSMRPPEITGQVSLPPGKRTNLRKTGSERIAHGMRVKFNPLALLLDSSLEGEFDLVQRIIYEVDDPSLPNDEGITALHNAVCAGHTEIVKFLVQFGVNVNAADSDGWTPLHCAASCNNVQVCKFLVESGAAVFAMTYSDMQTAADKCEEMEEGYTQCSQFLYGVQEKMGIMNKGVIYALWDYEPQNDDELPMKEGDCMTIIHREDEDEIEWWWARLNDKEGYVPRNLLGLYPRIKPRQRSLA
2,3,Apoptosis Stimulating Protein 1 (ASPP1) (protein) MMPMILTVFLSNNEQILTEVPITPETTCRDVVEFCKEPGEGSCHLAEVWRGNERPIPFDHMMYEHLQIWGPRREEVKFFLRHEDSPTENSEQGGRQTQEQRTQRNVINVPGDKRTEYGVGNPRVELTLSELQDMAARQQQQIENQQQMLVAKEQRLHFLKQQERRQQQSISENEKLQKLKERVEAQENKLKKIRAMRGQVDYSKIMNGNLSAEIERFSAMFQEKKQEVQTAILRVDQLSQQLEDLKKGKLNGFQSYNGKLTGPAAVELKRLYQELQIRNQLNQEQNSKLQQQKELLNKRNMEVAMMDKRISELRERLYGKKIQLNRVNGTSSPQSPLSTSGRVAAVGPYIQVPSAGSFPVLGDPIKPQSLSIASNAAHGRSKSANDGNWPTLKQNSSSSVKPVQVAGADWKDPSVEGSVKQGTVSSQPVPFSALGPTEKPGIEIGKVPPPIPGVGKQLPPSYGTYPSPTPLGPGSTSSLERRKEGSLPRPSAGLPSRQRPTLLPATGSTPQPGSSQQIQQRISVPPSPTYPPAGPPAFPAGDSKPELPLTVAIRPFLADKGSRPQSPRKGPQTVNSSSIYSMYLQQATPPKNYQPAAHSALNKSVKAVYGKPVLPSGSTSPSPLPFLHGSLSTGTPQPQPPSESTEKEPEQDGPAAPADGSTVESLPRPLSPTKLTPIVHSPLRYQSDADLEALRRKLANAPRPLKKRSSITEPEGPGGPNIQKLLYQRFNTLAGGMEGTPFYQPSPSQDFMGTLADVDNGNTNANGNLEELPPAQPTAPLPAEPAPSSDANDNELPSPEPEELICPQTTHQTAEPAEDNNNNVATVPTTEQIPSPVAEAPSPGEEQVPPAPLPPASHPPATSTNKRTNLKKPNSERTGHGLRVRFNPLALLLDASLEGEFDLVQRIIYEVEDPSKPNDEGITPLHNAVCAGHHHIVKFLLDFGVNVNAADSDGWTPLHCAASCNSVHLCKQLVESGAAIFASTISDIETAADKCEEMEEGYIQCSQFLYGVQEKLGVMNKGVAYALWDYEAQNSDELSFHEGDALTILRRKDESETEWWWARLGDREGYVPKNLLGLYPRIKPRQRTLA
